Assays:
Experiment in all cases: reconstitution and co-purification by ion-exchange chromatography; Rad50^NBD mixed with a slight excess of Mre11^HLH, heated at 60 °C for 10 min, cooled, complex purified on a HiTrap SP HP column; complex then used for methyl-TROSY NMR at 50 °C
Conditions in all cases: both partners purified
[1] = molecular target: T1, P. furiosus Rad50^NBD (V156M) (P. furiosus, UniProt P58301 1-195; P58301 709-882, V156M)
T1 construct: Rad50, Pyrococcus furiosus, N-terminal ABC-ATPase sub-domain, residues 1-195; flexible linker that replaces the coiled-coil and Zn-hook; Rad50, Pyrococcus furiosus, C-terminal ABC-ATPase sub-domain, residues 709-882; Point mutation made by Quikchange in the Rad50^NBD construct; source: E. coli BL21(DE3) C41, purified (HisTrap, HiTrap SP, Superdex 200)
T1 sequence (P58301 other isoform, or with tags, fused parts or gaps V156M | V156M | V156M V156M): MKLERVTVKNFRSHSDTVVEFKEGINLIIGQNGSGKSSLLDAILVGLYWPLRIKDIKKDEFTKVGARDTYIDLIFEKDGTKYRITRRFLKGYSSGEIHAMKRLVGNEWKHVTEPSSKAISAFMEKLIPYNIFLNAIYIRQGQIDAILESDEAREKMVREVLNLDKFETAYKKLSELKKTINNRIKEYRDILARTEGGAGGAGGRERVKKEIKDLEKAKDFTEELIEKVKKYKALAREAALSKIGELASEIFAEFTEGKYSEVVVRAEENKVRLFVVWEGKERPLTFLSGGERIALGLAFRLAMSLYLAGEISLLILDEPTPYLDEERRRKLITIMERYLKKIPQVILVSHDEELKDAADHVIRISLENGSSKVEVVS

[2] = molecular target: T2, P. furiosus Rad50^NBD (V157M) (P. furiosus, UniProt P58301 1-195; P58301 709-882, V157M)
T2 construct: Rad50, Pyrococcus furiosus, N-terminal ABC-ATPase sub-domain, residues 1-195; flexible linker that replaces the coiled-coil and Zn-hook; Rad50, Pyrococcus furiosus, C-terminal ABC-ATPase sub-domain, residues 709-882; Point mutation made by Quikchange in the Rad50^NBD construct; source: E. coli BL21(DE3) C41, purified (HisTrap, HiTrap SP, Superdex 200)
T2 sequence (P58301 other isoform, or with tags, fused parts or gaps V157M | V157M | V157M V157M): as the sequence (P58301 other isoform, or with tags, fused parts or gaps V156M | V156M | V156M V156M) above, with M156V, V157M counted along it

[3] = molecular target: T3, P. furiosus Rad50^NBD (V160M) (P. furiosus, UniProt P58301 1-195; P58301 709-882, V160M)
T3 construct: Rad50, Pyrococcus furiosus, N-terminal ABC-ATPase sub-domain, residues 1-195; flexible linker that replaces the coiled-coil and Zn-hook; Rad50, Pyrococcus furiosus, C-terminal ABC-ATPase sub-domain, residues 709-882; Point mutation made by Quikchange in the Rad50^NBD construct; source: E. coli BL21(DE3) C41, purified (HisTrap, HiTrap SP, Superdex 200)
T3 sequence (P58301 other isoform, or with tags, fused parts or gaps V160M | V160M | V160M V160M): as the sequence (P58301 other isoform, or with tags, fused parts or gaps V156M | V156M | V156M V156M) above, with M156V, V160M counted along it

[4] = molecular target: T4, P. furiosus Rad50^NBD (R805E) (P. furiosus, UniProt P58301 1-195; P58301 709-882, R805E)
T4 construct: Rad50, Pyrococcus furiosus, N-terminal ABC-ATPase sub-domain, residues 1-195; flexible linker that replaces the coiled-coil and Zn-hook; Rad50, Pyrococcus furiosus, C-terminal ABC-ATPase sub-domain, residues 709-882; Point mutation made by Quikchange in the Rad50^NBD construct; also called basic switch mutant; source: E. coli BL21(DE3) C41, purified (HisTrap, HiTrap SP, Superdex 200)
T4 sequence (P58301 other isoform, or with tags, fused parts or gaps R805E | R805E | R805E R805E): as the sequence (P58301 other isoform, or with tags, fused parts or gaps V156M | V156M | V156M V156M) above, with M156V, R300E counted along it

binding result [1]: binds
binding result [2]: binds
binding result [3]: binds
binding result [4]: binds
B1: P. furiosus Mre11 helix-loop-helix domain (Mre11^HLH, aa344-426) (domain or fragment)
chain: not shown
notes: Mre11, Pyrococcus furiosus, helix-loop-helix domain, residues 344-426, sub-cloned from codon optimized full-length Pf Mre11; Protonated (unlabelled) in the NMR samples; source: E. coli BL21(DE3) C41, purified (HisTrap, HiTrap Phenyl HP); not shown: NusA, N-terminal, cleaved; His6, N-terminal, cleaved
